Test results taken from the supplement of paper PMC9170038.

Key:
MS2 coat protein [1] = experiment: apparent KD of MS2 coat protein, switch ON state; designed switch direction (-1 OFF switch, 1 ON switch): -1; higher = weaker reporter binding; conditions: FMN input: 0 or 200 uM; Eterna round: R93 (includes R88 designs)
In short: (§1)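 Illumina sequencing clusters served as templates for on-chip transcription of the designed RNA switches. SNAP-549-labelled MS2 coat protein was then titrated in twofold steps from 0.7 or 1.5 nM to 3 µM, allowing 0.8–1.5 h per step at first and 10–20 min per step later. The buffer held 100 mM Tris-HCl pH 7.5, 80 mM KCl and 4 mM MgCl2, without or with constant ligand. Apparent KD is the median per design of normalised cluster binding-curve fits.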

MS2 coat protein [2] = experiment: apparent KD of MS2 coat protein, switch OFF state (with FMN for OFF switches, without FMN for ON switches); designed switch direction (-1 OFF switch, 1 ON switch): -1; higher = weaker reporter binding; conditions: FMN input: 0 or 200 uM; Eterna round: R93 (includes R88 designs)
In short: as §1

Sequence	apparent KD of MS2 coat protein (MS2 coat protein [1]) [nM]	apparent KD of MS2 coat protein (MS2 coat protein [2]) [nM]
AAAAAGUCAGGAUAUGCAUGAGCAAAAAAAAAAAAGCUCAUGCAGAAGGGACAUGAGGAUCACCCAUGUAAAAA [Ex 4 May 10]	70.2	48.6
AAAAAGUCAGGAUAUGGCAAAGGUCACGAAAGUGACAAAGGCUAGAAGGGACAUGAGGAUCACCCAUGUAAAAA [Fiskers Exclusion 4 D3]	53.4	35.3
AAAAAGUCAGGAUAUGUCAAAAGUCACAAAAGUGACAAAAGACAGAAGGGACAUGAGGAUCACCCAUGUAAAAA [Mod of Eli]	53.1	46.1
AAAAAGUGAGGAUAUACAUGAGGAUCACCCAUGUAAAAGGUCGCGGGAGGGAGGGACGGUAGAAGGCGCAAAAA [Excls3-VII]	15.7	22.2
AAAAAGUGAGGAUAUACAUGAGGAUCACCCAUGUGAAAUCGGAAAAAAAAGGAAAAAAGUAGAAGGCACAAAAA [Mat - Mod of Eli]	17.1	19.3
AAAAAGUGAGGAUAUACGAGGAGAAACAACAAACAAACAAAACAUGAGGAUCACCCAUGUAGAAGGCACAAAAA [Ex 2 sub 3]	22.4	28.6
AAAAAGUGAGGAUAUGAAAAUAAAAAAAAAAAAAAAAUAAAUCAGAAGGCACAUGAGGAUCACCCAUGUAAAAA [JR_Exc004_Sub1201]	29.8	38
AAAAAGUGAGGAUAUGCGAAGGCGUCUGAUAGACGAGGCUAGCAGAAGGCACAUGAGGAUCACCCAUGUGGGAA [Mat - Mod of Nando 64% 3]	53.8	98.5
AAAAAGUGAGGAUAUGCGCUGUCAAGUAGACACGAGCAGUCGUAGAAGGCACAUGAGGAUCACCCAUGUUCAAA [EX4 Malc#22]	25.4	16
AAAAAGUGAGGAUAUGCGCUGUCAAGUAGACACGAGCAGUCGUAGAAGGCACAUGAGGAUCACCCAUGUUUAAA [EX4 Malc#23]	28.5	19.4
AAAAAGUGAGGAUAUGUACGAAAAAAUAAAAAAAUAAAAGUACAGAAGGCACAUGAGGAUCACCCAUGUGAAAA [EX4 397: Minimal 10]	27.4	22.9
AAAAAGUGAGGAUAUUCGGAAGGGAAAGCGCAAACCCAACCGAAGAAGGCACAUGAGGAUCACCCAUGUGGAAA [Ecls4-III 65% - Early + late G segment 2]	32.1	26.8
AAAAAGUUAGGAUAUACAUGAGGAUCACCCAUGUACACAUAUGGAGAAUAUGGUAGUAGUAGAAGGGACAAAAA [EX2 Malc#15]	27.1	31.1
AAAAAGUUAGGAUAUACAUGAGGAUCACCCAUGUGCACGUAUGGAGAAUAUGGUGGUGGUAGAAGGGACAAAAA [EX2 Malc#19]	43.2	65.5
AAAAAUCGAGGAUAUACAUGAGGAUCACCCAUGUCAGAAAAUGACUACACAAAAGAAAGUAGAAGGCGAUAAAG [Mat - Exclusion 3 - Mayanna mod - D131]	32	64.1
AAAAAUCGAGGAUAUACAUGAGGAUCACCCAUGUGGGACCAAGAAAACACAAAAGAAAGUAGAAGGCGAUAAAA [Ex 3 May 23]	21.9	76.4
AAAAAUCUAGGAUAUACAUGAGGAUCACCCAUGUAAGAAAAUGAUUACACAAAAGAAAGUAGAAGGAGAUAAAA [Ex 3 May 19]	17.4	18.4

Sequence	apparent KD of MS2 coat protein (MS2 coat protein [1]) [nM]	apparent KD of MS2 coat protein (MS2 coat protein [2]) [nM]
AAAAAUGCAGGAUAUACAUGAGGAUCACCCAUGUUAGACCUGAAAAAAGGGAAAGAAAGUAGAAGGGCAUAAAA [Ex 3 May 30]	12.7	11.2
AAAAAUGCAGGAUAUACGAACAUGUCGAAAGACGUGAAGGGACAUGAGGAUCACCCAUGUAGAAGGGUAAAGAA [Mat - Exclusion 2 - JL mod - D74]	264	62.5
AAAAAUGGAGGAUAUACAUGAGGAUCACCCAUGUGUAACUAUACUAAACACAAAAAAAGUAGAAGGCCAAAAAA [Gilly Gone Silly 8 - Jieux - Exclusion 3]	32.7	50
AAAAAUGGAGGAUAUACAUGAGGAUCACCCAUGUGUAACUAUACUAAGCGCUCCUCAGGUAGAAGGCCAAAAAA [Gilly Gone Silly 15 - Jieux - Exclusion 3]	70.9	48
AAAAAUUGAGGAUAUACGAACAUGUCAAAAGACGUGAAGGGACAUGAGGAUCACCCAUGUAGAAGGCGAAAAAA [JL Loop Breaker 2]	41.3	19.7
AAAAAUUGAGGAUAUACGUACAUGUCAAAAGACGUGAAGGGACAUGAGGAUCACCCAUGUAGAAGGCGAAAAAA [JL Neck Breaker 12]	38.8	13.6
AAAACACAUGAGGAUCACCCAUGUGAGGAUAUGCUAUGGAAAUAAAAAAUAAAACAUAGCAGAAGGCACAAAAA [Mat - Exclusion 1 - Eli mod - D40]	23.9	39
AAAACGGCAGGAUAUACGAUUGGGAACUAGACCGAGGAACCACAUGAGGAUCACCCAUGUAGAAGGGCCAAAAA [Ex2 Malc#15]	24.2	96.1
AAAACGUGAGGAUAUACUAAAAUAAAAAAUUAUGUUAAAAAACAUGAGGAUCACCCAUGUAGAAGGCACAAAAA [AJ 3]	29.8	28.6
AAAACGUGAGGAUAUGCACCAAAAAAAAAAAAACGGGUACGACAUGAGGAUCACCCAUGUAGAAGGCACGAAAA [Frodo Flailing 7 - Jieux - Exclusion 2]	56	39.4
AAAACUGGAGGAUAUACGUACAUGUCGAAAGACGUGAAGGGACAUGAGGAUCACCCAUGUAGAAGGCUAGAAAA [Mat - Exclusion 2 - JL mod - D71]	53.1	87.6
AAAAGACAUGAGGAUCACCCAUGUUAGGAUAUCGUGCAGAAAAAAAAAAAAAACUGCACGAGAAGGAACAAGGA [Seclusion]	30.5	51.9
AAAAGUAGAGGAUAUACAUGAGGAUCACCCAUGUAGAAAGGAAGUGUAUAUAUGGCAUGUAGAAGGCUACAUGA [Banishment 8 - Jieux - Exclusion 3]	27.4	34.2
AAAAGUGGAGGAUAUACAUGAGGAUCACCCAUGUGUAAAAAUAAAAACACAAAAGAAAGUAGAAGGCCACAAAG [Mat - Exclusion 3 - Mayanna mod - D115]	19.4	55.2
AAAAUGUCAGGAUAUGCGAAGGCGUCUGAUAGAAGAGGAUAGCAGAAGGGACAUGAGGAUCACCCAUGUGGAAA [Opal 25]	72.3	124
AAAAUGUCAGGAUAUGCGAAGGCGUCUGAUAGACGAGGCUAGCAGAAGGGACAUGAGGAUCACCCAUGUAAAAA [Power strip]	82.2	179
AAAAUGUCAGGAUAUGUAGCAAAAAGUGAUCCAAAAAAGCUACAGAAGGGACAUGAGGAUCACCCAUGUAAAAA [Ex4: 932]	244	406
